Laboratory results published in US12084521B2, “TLR9 inhibitors to suppress inflammatory response to pathogens” (University Of Maryland, Baltimore, priority 2018, dated 2024).
No end group written: not given here.

Columns and labels:
TIRAP TIR = molecular target: T1, TIRAP TIR (Homo sapiens, UniProt P58753); assay: FLIM/FRET binding of Cy3-labeled peptides to Cer-fused TIR in HeLa cells; details: HeLa cells, Cy3-peptide 2.5-40 μM, 1 hour
T1 construct: fused with TLR9 TIR or TIRAP TIR; expressed in transfected cells; host or cells: HeLa
T1 sequence (P58753 84-213 limits assumed): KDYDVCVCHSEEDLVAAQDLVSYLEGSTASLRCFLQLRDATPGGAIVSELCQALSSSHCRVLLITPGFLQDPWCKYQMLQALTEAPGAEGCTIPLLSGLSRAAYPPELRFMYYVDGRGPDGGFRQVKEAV
Protocol: Three million HeLa cells were transfected with 10 μg of MyD88-Cer, TIRAP-Cer, TRAM-Cer, TLR2-Cer, TLR4 TIR-Cer, or TLR9 TIR-Cer expression vectors using a Lipofectamine™ 3000 kit from Invitrogen™ per manufacturer recommendations. Twenty four hours later, the transfected cells were trypsinized and reseeded into a 50-well gasket (Grace Bio-Labs™) mounted on a microscope slide at the density 8000 cells/well. The next day, cells were treated with Cy3-9R34-ΔN or Cy3-9R11 for 1 hour and fixed on the slides with a 4% paraformaldehyde solution.
Fluorescence lifetime images were acquired using the Alba V FLIM™ system (ISS™ Inc.). The excitation was from the laser diode 443 nm coupled with scanning module (ISS™) through multiband dichroic filter 443/532/635 nm (Semrock™) to Olympus™ IX71S microscope with objective 20×0.45 NA (UPlan™ Olympus™). Emission was observed through bandpass filter […] (Chroma Technology™) and detected by a photomultiplier H7422-40 (Hamamatsu™). Measurements were performed using frequency domain (FD) and time domain (TD) modalities of the FLIM system. FD FLIM data were acquired using ISS™ A320 FastFLIM™ electronics with n harmonics of 20 MHz laser repetition frequency (n=1, 2, 3, 4, 5, 6). FastFLIM™ was calibrated using fluorescein in buffer pH 8.0 as a standard with a single lifetime of 4.0 ns. TD FLIM images were acquired using time-correlated single photon counting TCSPC™ Model SPC-830 (Becker & Hick™).
Images (256×256 pixels) were acquired with resolution varied in the range ˜0.4-0.7 μm/pixel, using scan speed 1 ms/pixel. To avoid pixel intensity saturation in bright cells and to improve the signal from dim cells, two to five overlapping scans were used for acquisition of FLIM images. Image sizes varied from 100×100 to 180×180 μm to accommodate multiple cells. FLIM data were analyzed with VistaVision™ Suite software (Vista™ v.212 from ISST). Fluorescence lifetime was determined using single- and bi-exponential intensity decay models. Average lifetime images were generated based on pixel-by-pixel analysis using the combined signal of two neighboring pixels in all directions (bin 2=25 pixels). The binning was used to improve the signal for analysis. The average lifetimes were calculated from fitted parameters, decay times τi and amplitudes αi, τa=Σαiτi. The bi-exponential fitting procedure was performed with one lifetime component fixed at 3.1 nsec, which was found common for most images. To calculate the effective FRET efficiency (E), average lifetimes of the donor only images (τD) and donor-acceptor images (τDA) were used, E=1−τDA/τD.
To identify potential binding partners of inhibitory peptides a FRET approach coupled with Fluorescence Lifetime Imaging Microscopy (FLIM) was used. HeLa cells were transiently transfected with an expression vector that encodes a TIR domain fused with Cerulean fluorescent protein (Cer). Cells were treated with various concentrations of a Cy3-labeled inhibitory peptide 48 hours after transfection. Cy3 is a suitable FRET acceptor for Cer fluorescence. A direct molecular interaction of a Cy3-labeled peptide with Cer-fused TIR domain should quench Cer fluorescence, leading to a decreased fluorescence lifetime.
TLR9, MyD88, and TIRAP were selected as potential primary binding partners for Cy3-9R34-ΔN and Cy3-9R11. Cer-fused TLR2 and TLR4 TIR domains, and Cer not fused to a TIR, were used as controls. […] Therefore, the TIRAP-Cer with Cy3-2R9 was used as a positive binding control. Binding of Cy3-labeled CPDPs to Cerulean- (Cer-) labeled TIR domains was tested as follows. Fluorescence Lifetime IMages (FLIM) were made of HeLa cells expressing Cer not fused with a TIR domain (upper row) or fused with TLR9 TIR or TIRAP TIR (middle and bottom rows) and treated with a Cy3-labeled decoy peptide for 1 hour.
A progressive shift of average fluorescence lifetime towards lower values observed with increasing peptide concentrations indicates the binding between donor and acceptor moieties. […]

TLR9 signaling = assay: Plasma cytokines after i.p. ODN 1668 in mice; type: in vivo, C57BL/6J mice; details: peptide 200 nmol/mouse i.p.; ODN 1668 7.86 nmol/mouse
Protocol: (§1) Systemic cytokine levels were measured in plasma samples obtained 1, 3, and 5 hours after intraperitoneal (i.p.) administration of 7.86 nmol (50 μg) of ODN 1668 or 67 nmol of Pam3C per mouse, using ELISA kits from Biolegend™ Inc. CPDP were dissolved in PBS and administered i.p. at the dose of 200 nmol per mouse 1 hour before administration of a TLR agonist. For survival experiments, mice were sensitized to TLR9 agonists by i.p. injection of 20 mg of D-Gal 30 minutes before administration of peptides or PBS. ODN 1668 was used at the doses of 3.93 or 7.86 nmol/mouse (25 or 50 μg/mouse) 1.5 hours after D-Gal. Animal survival was monitored for 50 hours. All agents were administered i.p. in 500 μL volume of PBS. Animals had free access to food and water during the observation period. All animal experiments were conducted in accordance with the national guidelines for the care and use of laboratory animals under a protocol that was approved by the UMB IACUC.
To test the in vivo efficacy and specificity of 9R34-ΔN, C57BL/6J mice were mock-treated or treated i.p. with a single dose of inhibitory or control peptide (200 nmol/mouse) and challenged with TLR9 agonist ODN 1668 (7.86 nmol/mouse) or TLR2/1 agonist Pam3C (67 nmol/mouse) 1 hour later. Plasma concentrations of TNFα and IL-12-p40 were measured 1, 3, and 5 hours after the challenge. Both TLR agonists increased concentrations of TNFα and IL-12-p40 in 1 hour samples from below the limit of detection to about 1.2 and about 6 ng/mL in the case of ODN 1668, and to 0.12 ng/mL and 1 ng/mL after treatment with Pam3C.
Plasma TNFα and IL-12-p40 levels following intraperitioneal administration of ODN 1668 to C57Bl/6J mice in peptide-pretreated and control mice are shown in FIG. 14A and FIG. 14B. Data shown in these figures represent the means±SEM obtained in at least three independent experiments. The statistical significance of changes in cytokine concentrations was determined by a two-way ANOVA test; *p<0.001.

TLR2/1 signaling = assay: Plasma cytokines after i.p. Pam3C in mice; type: in vivo, C57BL/6J mice; details: peptide 200 nmol/mouse i.p.; Pam3C 67 nmol/mouse
Protocol: as §1, with “Animals had free access to food and water during the observation period. All animal experiments were conducted in accordance with the national guidelines for the care and use of laboratory animals under a protocol that was approved by the UMB IACUC.” left out
To test the in vivo efficacy and specificity of 9R34-ΔN, C57BL/6J mice were mock-treated or treated i.p. with a single dose of inhibitory or control peptide (200 nmol/mouse) and challenged with TLR9 agonist ODN 1668 (7.86 nmol/mouse) or TLR2/1 agonist Pam3C (67 nmol/mouse) 1 hour later. Plasma concentrations of TNFα and IL-12-p40 were measured 1, 3, and 5 hours after the challenge. […]
Plasma TNFα and IL-12-p40 levels following intraperitioneal administration of ODN 1668 to C57Bl/6J mice in peptide-pretreated and control mice are shown in FIG. 14A and FIG. 14B. […] The statistical significance of changes in cytokine concentrations was determined by a two-way ANOVA test; *p<0.001.

recombinant TIRAP = recombinant TIRAP (Homo sapiens, UniProt P58753); details: cited from earlier work
Chain of recombinant TIRAP (P58753 whole entry): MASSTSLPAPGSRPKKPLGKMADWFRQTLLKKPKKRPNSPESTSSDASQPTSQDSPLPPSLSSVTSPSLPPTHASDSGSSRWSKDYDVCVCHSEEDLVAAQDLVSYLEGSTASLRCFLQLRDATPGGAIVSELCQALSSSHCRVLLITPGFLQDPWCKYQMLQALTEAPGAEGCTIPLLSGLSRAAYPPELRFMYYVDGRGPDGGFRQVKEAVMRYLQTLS

With “PQRFCKLRKIMNT (also: Cy3 label, position not given here) [Peptide 2R9, reference compound]” as the sequence, how does the “quenching of TIRAP-Cer fluorescence” value (TIRAP TIR) read?
Its value is “slightly higher than for the TLR9-9R34-ΔN pair”.

What about the “ODN 1668-induced plasma cytokine levels (TNFα, IL-12-p40)” value (TLR9 signaling) of the same sequence?
The value was “suppressed cytokine induction”.

What about the “Pam3C-induced plasma cytokine levels (TNFα, IL-12-p40)” value (TLR2/1 signaling) of the same sequence?
The value was “suppressed cytokine induction”.

What about the “affinity for recombinant TIRAP” value (recombinant TIRAP) of the same sequence?
Its value is “nanomolar”.
